The text below walks through data of publication PMC3257806 (Nature Cell Biology, 2011).

The target of one test is T1, GST-SHARPIN (Homo sapiens, UniProt Q9H0F6).
T1 sequence (Q9H0F6 1-387): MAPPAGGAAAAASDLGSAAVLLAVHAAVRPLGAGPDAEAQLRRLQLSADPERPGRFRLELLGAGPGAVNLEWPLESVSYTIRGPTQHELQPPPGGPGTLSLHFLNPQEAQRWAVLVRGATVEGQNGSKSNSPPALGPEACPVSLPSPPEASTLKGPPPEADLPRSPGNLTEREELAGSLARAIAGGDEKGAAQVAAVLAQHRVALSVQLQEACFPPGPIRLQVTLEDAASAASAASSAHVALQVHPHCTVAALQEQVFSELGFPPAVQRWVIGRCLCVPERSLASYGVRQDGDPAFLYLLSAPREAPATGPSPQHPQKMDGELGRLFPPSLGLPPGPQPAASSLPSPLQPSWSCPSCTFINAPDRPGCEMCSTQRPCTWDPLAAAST
Type of test: binding. The following applies: 2.5 μM biotinylated peptide on streptavidin-sepharose beads; Western blot. In general terms: In western blotting, separated proteins are transferred to a membrane and probed.

For test [1], the target named is EDANS-labelled wild-type α2-peptide (α2-wt). The test is described as follows: fluorescence polarisation. Background: Fluorescence polarisation rises when a labelled molecule tumbles more slowly, as on binding a larger partner.

In general, Kd refers to the equilibrium constant for the complex coming apart.

For “β1-tail: peptide of the cytoplasmic domain of β1-integrin, biotinylated or unlabelled”, the “interaction of recombinant GST-SHARPIN with biotinylated peptide (pull-down)” value with GST-SHARPIN was “did not interact”.

B1: recombinant GST-SHARPIN (natural protein)
chain: T1 sequence (Q9H0F6 1-387)
B1 displayed a Kd in test [1] of 26 µM. This lies in the double-digit micromolar range.
